The record followed here is paper PMC6209228, “Crystal structure and functional characterization of a cold-active acetyl xylan esterase (PbAcE) from psychrophilic soil microbe Paenibacillus sp” (PLoS ONE, 2018).

For data set [1], the target named is T1, PbAcE (Paenibacillus sp. R4, UniProt A0A452CSP2).
T1 construct: gene cloned in pET-28a (NdeI/XhoI), N-terminal His6 tag cut by thrombin, E. coli BL21(DE3); ~36 kDa monomer, hexamer 234 kDa; 1896 residues modelled in six chains; primers encode N-terminus MPNVDMP and C-terminus IEAYL; catalytic triad Ser185, Asp274, His303
As to the kind of experiment: p-nitrophenol release at […] nm, initial rates, double reciprocal plot. The class given is biochemical. Conditions: 20 mM Tris-HCl, 150 mM NaCl, pH 7.4; free enzyme.

The target of data set [2] is cold-active acetyl xylan esterase (PbAcE) from Paenibacillus sp. R4 (Paenibacillus sp. R4). As to the kind of experiment: AUC; sedimentation velocity, 20°C, 0.5 mg/ml PbAcE, 20 mM Tris-HCl pH 8.0, 150 mM NaCl, 45,000 rpm, SEDFIT.
Substrate in data set [3]: CCCC(=O)Oc1ccc([N+](=O)[O-])cc1
In words: purified protein. The class given is biochemical, Paenibacillus sp. R4. The conditions noted are these: 20 mM Tris-HCl, 150 mM NaCl, pH 7.4, free enzyme.

What is called Km is the concentration of substrate that gives half-maximal velocity. The term stoichiometry N denotes a count of units in the complex or per binding partner. Usually kcat stands for the number of substrate molecules converted per active site and unit of time at saturation.

In the case of `CC(=O)Oc1ccc([N+](=O)[O-])cc1` [pNP-C2, p-nitrophenyl acetate], the Km result in data set [1] was “initial kinetic studies were performed for pNP-C2 and pNP-C4”. With “cold-active acetyl xylan esterase (PbAcE) from Paenibacillus sp. R4 (enzyme)”, in data set [2], the stoichiometry N worked out at 6.

B1: PbAcE (Paenibacillus sp. R4) (protein)
chain: MPNVDMPLSQLQDYKPELTNETDFDLFWDNAKALSNQKPLHAQVNLVQDYPLKSISIYDVVYDGADGTPIHGWYVTPKGEHQPGSLPVLVKYHGYSGNRGYPNELLQWASMGMAALAIDVRGQGGVTPDRAEYPQGGIPGWMTLGILDPASYYYKQVYLDCIRALDFVCSREEVDASRIAVYGGSQGGGLALAAAGLDSRPKLALPVFPFLCHFRRSVEIHASGPYVEIKNWFRRYDPEHRQEEQVYRTLSYFDGMNMASRIKARTLMAITLQDITCPPSTCFAAYNHLAGPKEVRLYHDYGHEGLPFHEEAMMRFIEAYL
notes: gene cloned in pET-28a (NdeI/XhoI), N-terminal His6 tag cut by thrombin, E. coli BL21(DE3); ~36 kDa monomer, hexamer 234 kDa; 1896 residues modelled in six chains; primers encode N-terminus MPNVDMP and C-terminus IEAYL; catalytic triad Ser185, Asp274, His303
B1: in data set [3], the Km was found to be 1.23 ± 0.33 mM and the kcat is 0.19 ± 0.02 s⁻¹.
